In patent US10401365B2, “Inhibition of chemokine CCL7 or receptor CCR3 of same for the treatment and diagnosis of prostate cancer” (Universite Paul Sabatier (Toulouse III), priority 2014, dated 2019):
Several values for one entry are separate records, joined by “and”; a condition that tells them apart may be missing. Equal values may be shown once.

Legend:
PC-3 cells [1] = experiment: Boyden chamber migration of PC-3 cells against conditioned medium from mature adipocytes (CM-Ad, 3T3-F442A); format: cell-based, human
Excerpt: The monoclonal antibodies targeted against CCR1 (D063-3 clone 141-2) and CCR3 (D083-3, clone 444-11) are obtained from MBL International (Worburn, Mass., USA). The anti-CCR2 (clone E68) and anti-CCR3 (clone Y31) monoclonal antibodies are obtained from Abcam (Cambridge, Mass., USA). The monoclonal antibodies against CXCR2 (clone 48311), CXCR4 (clone 44716) and CCR1 (clone 53504) are obtained from R&D Systems (Minneapolis, Minn., USA).
The inhibitor targeting the receptor CXCR4, AMD3100 (Rosenkilde, Gerlach et al. 2004) is obtained from Sigman Aldrich and is used at final concentrations of 1, 10, 50 and 100 nM. The inhibitor targeting the receptors CXCR1 and CXCR2, SB225002 (White, Lee et al. 1998)) is obtained from Tocris (Bristol, United Kingdom) and is used at final concentrations of 1, 10 and 100 nm. […]
In order to evaluate the ability of tumor cells to migrate according to the culture medium, Boyden chamber migration tests were conducted using 8 μm porosity Greiner bio-one inserts. […] The migration of the tumor cells is evaluated after 12 hrs of migration at 37° C. and 5% CO2 by 1% toluidine blue staining supplemented with 0.1M borax (Sigma, St Louis, Mo., USA) and quantification of the absorbance (measured at 570 nm).

PC-3 cells [2] = experiment: Migration of PC-3 cells against serum-free medium with recombinant CCL7; format: cell-based, human; details: dose-dependent, 1-100 ng/ml
Description: (§1) In order to evaluate the ability of tumor cells to migrate according to the culture medium, Boyden chamber migration tests were conducted using 8 μm porosity Greiner bio-one inserts. In the lower compartment either culture medium with or without serum, or conditioned medium from F442A adipocytes (CM-Ad), human periprostatic adipose tissue (CM-PPAT), mouse perigonadal adipose tissue (CM-PGAT), adipocytes or vascular fraction cells (SVF) isolated from PPAT or PGAT is introduced. These conditioned media may be pretreated for 30 minutes by adding antibodies blocking the chemokine CCL7. Experiments with the recombinant chemokine CCL7 were also conducted, in this case the chemokine is added to serum-free culture medium to verify the chemoattractant potential thereof on a cell line. In the upper chamber 1×10^5 cells, previously depleted for 6 hours of serum are deposited in serum-free culture medium. […] The migration of the tumor cells is evaluated after 12 hrs of migration at 37° C. and 5% CO2 by 1% toluidine blue staining supplemented with 0.1M borax (Sigma, St Louis, Mo., USA) and quantification of the absorbance (measured at 570 nm).

Du-145 cells = experiment: Migration of Du-145 cells against serum-free medium with recombinant CCL7; format: cell-based, human; details: dose-dependent, 1-100 ng/ml
Description: as §1

TRAMP-C1P3 cells [3] = experiment: Migration of TRAMP-C1P3 cells against serum-free medium with recombinant CCL7; format: cell-based, mouse; details: 1-100 ng/ml
Description: as §1

RM1-BM cells = experiment: Migration of RM1-BM cells against serum-free medium with recombinant CCL7; format: cell-based, mouse; details: 100 ng/mL; p<0.01
Description: as §1

TRAMP-C1P3 cells [4] = experiment: Intraprostatic injection of TRAMP-C1P3 cells in C57BL/6 mice, tumor growth; format: in vivo; details: for tumor size: 2×10^6 cells intraprostatic, n=11, p<0.001 vs shCtrl
Description: Male C57BL/6 mice aged 18 weeks on a normal or high-fat diet were anesthetized with isoflurane. A transverse incision was made at the lower part of the abdomen. The muscles of the abdominal wall were incised, and the bladder and the seminal vesicles were released so as to expose the dorsal lobe of the prostate. A suspension of 2×10^6 cells (in 30 μl of PBS) was then carefully injected under the prostate capsule by means of a gauge 30 needle. The incision was closed using 4-0 suture and clips. The animals were then placed in cages and regular monitoring is conducted in order to monitor macroscopically the general condition of the mouse. After 20 days of tumor establishment, the mice are sacrificed, the primary tumor is thus removed, measured and weighed, and an acquisition in white light and GFP is carried out. The tumors are then placed in a paraformaldehyde solution (4%) and included in paraffin.

TRAMP-C1P3 cells [5] = experiment: Migration of shRNA-transfected TRAMP-C1P3 lines against CM-Ad or adipose tissue conditioned medium; format: cell-based, mouse
Description: In order to evaluate the ability of tumor cells to migrate according to the culture medium, Boyden chamber migration tests were conducted using 8 μm porosity Greiner bio-one inserts. In the lower compartment either culture medium with or without serum, or conditioned medium from F442A adipocytes (CM-Ad), human periprostatic adipose tissue (CM-PPAT), mouse perigonadal adipose tissue (CM-PGAT), adipocytes or vascular fraction cells (SVF) isolated from PPAT or PGAT is introduced. These conditioned media may be pretreated for 30 minutes by adding antibodies blocking the chemokine CCL7. Experiments with the recombinant chemokine CCL7 were also conducted, in this case the chemokine is added to serum-free culture medium to verify the chemoattractant potential thereof on a cell line. In the upper chamber 1×10^5 cells, previously depleted for 6 hours of serum are deposited in serum-free culture medium. For the migration tests in the presence of blocking antibodies specific for CCR1 or CCR3 or inhibitors of CCR1/CCR3, CCR2, CXCR1/CXCR2 and CXCR4, the tumor cells are previously incubated in a tube with the blocking antibody or the inhibitor for 30 min at 37° C. The migration of the tumor cells is evaluated after 12 hrs of migration at 37° C. and 5% CO2 by 1% toluidine blue staining supplemented with 0.1M borax (Sigma, St Louis, Mo., USA) and quantification of the absorbance (measured at 570 nm).
(§2) The nucleotides targeting the sequence of CCR3 are shown in upper case, whereas the sequence responsible for the hairpin structure and the sequences required for directional cloning are represented in lower case letter. The lentiviral vector LVTHM® is a lentiviral vector (LV) coding for the shRNA CCR3 sequences under the control of the H1 promoter also expressing GFP. The TRAMP-C1P3 cells were then transfected in the presence of m4, m5 or m6-LVTHM for 24 hours at a multiplicity of infection (MOI) of 1:10. The transfected population is selected by GFP expression (cell sorting). These cells were then analyzed by flow cytometry to validate the loss of expression of the CCR3 gene. The control used is the pLVTHM plasmid which expresses an ineffective shRNA sequence.

receptor CCR3 = experiment: Expression of receptor CCR3 in shRNA-transfected TRAMP-C1P3 cells; format: cell-based, mouse; details: stable shRNA, lentiviral
Description: The tumor cells (from prostate, breast, colon, pancreas, or melanoma) were washed three times in FACS buffer (PBS supplemented with 0.5% BSA and 2% FCS) and fixed with a 3.7% paraformaldehyde solution for 20 min at 4° C. The tumor cells were suspended with anti-CXCR4 (10 μg/ml), anti-CXCR1 (10 μg/ml), anti-CXCR2 (1:25), anti-CCR1 (10 μg/ml), anti-CCR2 (20 μg/ml), anti-CCR3 (10 μg/ml) antibodies or isotypical mouse anti-IgG control antibodies at 4° C. for 2 hours. The tumor cells were incubated with a mouse anti-IgG secondary antibody (dilution to 1:200) coupled with Alexa Fluor 488 or coupled with Cyanine 5 (for cells expressing GFP) for 30 minutes at 4° C. Finally, 2×10^4 cells were analyzed by flow cytometry using a FACScan and FACScalibur flow cytometer (analysis on CellQuest™ software (BD-PharMingen)).
In order to inhibit the expression of the receptor CCR3 (NM_009914) in a stable manner in TRAMP-C1P3 cells, an shRNA approach was used enabling stable negative regulation even after several months of culture. The interfering sequences were generated using the Dharmacon “Center siDesign” tool. The sequences of the sense strands of shRNA generated are as follows:
as §2

With c1cc(CN2CCCNCCNCCCNCC2)ccc1CN1CCCNCCNCCCNCC1 [AMD3100] the “reduction of migration of PC-3 cells against CM-Ad” value (PC-3 cells [1]; 100 nM (maximum dose, only dose effective), p<0.05) was “approximately 20%”.

For O=C(Nc1ccc([N+](=O)[O-])cc1O)Nc1ccccc1Br [SB225002], the “inhibition of migration of PC-3 cells induced by CM-Ad” value (PC-3 cells [1]; 50 nM, p<0.01) was “approximately 30%”.

With “recombinant chemokine CCL7: human recombinant chemokine CCL7, ligand of CCR3, added to serum-free medium as chemoattractant” the “dose from which induced migration of PC-3 cells is significant compared to medium alone” value (PC-3 cells [2]) was 50 ng/mL, the “dose from which induced migration of Du-145 cells is significant compared to medium alone” value (Du-145 cells) was 50 ng/mL and the “dose from which dose-dependent chemotaxis of TRAMP-C1P3 cells is induced” value (TRAMP-C1P3 cells [3]) was 50 ng/mL. The “induction of migration of RM1-BM cells with respect to serum-free medium” value (RM1-BM cells) was “significant migration”.

B1: m6CCR3: shRNA targeting the gene CCR3, SEQ ID NO: 3 (nucleic acid)
chain: CGCCGTCCCCGGTGAGAGGTTCCGGAAACTTCAAGAGAGTTTCCGGAACCTCTCACCTTTTTGGAAAT
With B1 the “invasion of the dorsal lobe of the prostate (histology, HE) compared with C1P3 Ctrl line” value (TRAMP-C1P3 cells [4]; histological sections) was “much less extensive invasion”, the tumor size (TRAMP-C1P3 cells [4]; mice on normal-fat diet) was 220±30 mm3 and the tumor size (TRAMP-C1P3 cells [4]; obese mice on high-fat diet) was 210±25 mm3 and 200±50 mm3. The “migration of shCCR3 TRAMP-C1P3 lines against CM-Ad with respect to control line” value (from here on “migration of shCCR3 TRAMP-C1P3 lines”) (TRAMP-C1P3 cells [5]) was “significant reduction”, the “migration of shCCR3 TRAMP-C1P3 line against conditioned medium of ND AT-mu-PG with respect to control line” value (TRAMP-C1P3 cells [5]; ND AT-mu-PG) was “reduction in the migration is also detected” and the “increase in migration in presence of HFD AT-mu-PG” value (TRAMP-C1P3 cells [5]; m6CCR3 line, unlike shCtrl line) was “not significant”. For the same molecule, the “expression of receptor CCR3 in TRAMP-C1P3 line with respect to control line (shCtrl)” value (shortened to “expression of receptor CCR3”) (receptor CCR3) was “significant reduction”.

B2: m4CCR3: shRNA targeting the gene CCR3, SEQ ID NO: 1 (nucleic acid)
chain: CGCGTCCCCAGACCACACCCTATGAATATTCAAGAGATATTCATAGGGTGTGGTCTTTTTTGGAAAT
For B2, the “migration of shCCR3 TRAMP-C1P3 lines” value (TRAMP-C1P3 cells [5]) was “significant reduction” and the “expression of receptor CCR3” value (receptor CCR3) was “significant reduction”.

B3: m5CCR3: shRNA targeting the gene CCR3, SEQ ID NO: 2 (nucleic acid)
chain: CGCGTCCCCGACCACACCCTATGAATATTTCAAGAGAATATTCATAGGGTGTGGTCTTTTTGGAAAT
B3 was tested, and the “migration of shCCR3 TRAMP-C1P3 lines” value (TRAMP-C1P3 cells [5]) was “significant reduction” and the “expression of receptor CCR3” value (receptor CCR3) was “significant reduction”.
